Data taken from patent US20260008817A1, “CYCLIC PEPTIDE OR SALT THEREOF, AND USES THEREOF” (FUJIFILM Corporation, priority 2023, published 2026).
Positions of bridges follow the written chain, without caps; N, C: chain ends. No end group written: not given here. COCH2 = acetyl group that carries the bridge

Target: T1, Recombinant Human FGFR1 alpha (IIIc) Fc Chimera Protein (Homo sapiens, UniProt P11362)
T1 construct: purchased R&D systems 658-FR-050
Experiment: ELISA binding affinity of enzymatically synthesized peptide to FGFR
Conditions: ELISA luminescence signal at 10 nmol/L peptide, SEQ ID NO: 239 standardized to 1; enzyme synthesis product
Summary of the method: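 Cell-free PUREfrex-translated cyclic peptides (Myc/HiBiT-tagged, quantified by HiBiT luminescence) bound 3 h at room temperature to immobilized FGFR1α(IIIc)-Fc, detected with anti-Myc and chemiluminescence. FGFR-specific signal at 10 nmol/L normalized to a reference cyclic peptide and graded A–D.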

T1 sequence (P11362 with tags, fused parts or gaps limits assumed): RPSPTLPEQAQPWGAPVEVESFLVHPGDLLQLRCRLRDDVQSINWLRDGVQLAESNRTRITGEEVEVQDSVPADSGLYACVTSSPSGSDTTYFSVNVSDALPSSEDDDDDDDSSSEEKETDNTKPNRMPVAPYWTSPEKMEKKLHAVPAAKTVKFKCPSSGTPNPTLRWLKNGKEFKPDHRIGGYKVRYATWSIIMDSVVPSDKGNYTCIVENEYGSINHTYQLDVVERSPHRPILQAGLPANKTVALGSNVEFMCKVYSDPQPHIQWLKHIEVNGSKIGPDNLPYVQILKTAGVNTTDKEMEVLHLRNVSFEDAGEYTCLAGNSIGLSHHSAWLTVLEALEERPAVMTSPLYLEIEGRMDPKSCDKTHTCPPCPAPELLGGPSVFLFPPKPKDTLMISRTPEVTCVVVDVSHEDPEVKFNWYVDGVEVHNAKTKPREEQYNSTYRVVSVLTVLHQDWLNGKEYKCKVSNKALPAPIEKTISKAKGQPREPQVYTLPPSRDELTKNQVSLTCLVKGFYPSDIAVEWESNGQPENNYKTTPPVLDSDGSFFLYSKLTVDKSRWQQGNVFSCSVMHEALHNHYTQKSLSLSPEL

| Substance | Evaluation result of binding affinity to FGFR |
| --- | --- |
| 272 (QCDWVIWQWDPPYIKV; Description of Artificial Sequence: Cyclic peptide) [compound 272] | C (0.1 or more and less than 0.5) |
| 273 (PCWWATQIWTYPFYKV; Description of Artificial Sequence: Cyclic peptide) [compound 273] | C (0.1 or more and less than 0.5) |
| 274 (FCIYTFSRESGLLWKQ; Description of Artificial Sequence: Cyclic peptide) [compound 274] | A (0.7 or more) |
| 275 (LCPLYAWQTLYQYGWK(COCH2)V; thioether 2-16 (inferred)) [compound 275] | A (0.7 or more) |
| 276 (ECIYTFDPQRHPVLVK(COCH2)V; thioether 2-16 (inferred)) [compound 276] | C (0.1 or more and less than 0.5) |
| 277 (TCPVWAWHQAFQFGWK(COCH2)I; thioether 2-16 (inferred)) [compound 277] | C (0.1 or more and less than 0.5) |
| 278 (ICPLYGDQGQAWQYGWK(COCH2)L; thioether 2-17 (inferred)) [compound 278] | A (0.7 or more) |
| 279 (QCLQKVGYLLWQFGWSK(COCH2)I; thioether 2-17 (inferred)) [compound 279] | C (0.1 or more and less than 0.5) |
| 280 (PCPVWGDYGAVHQYGWK(COCH2)V; thioether 2-17 (inferred)) [compound 280] | A (0.7 or more) |
| 281 (YCVYTFDAQDVWRPLRK(COCH2)V; thioether 2-17 (inferred)) [compound 281] | C (0.1 or more and less than 0.5) |
| 282 (FCIYSWNWNNLVRPEFRK(COCH2)V; thioether 2-18 (inferred)) [compound 282] | C (0.1 or more and less than 0.5) |
| 283 (WCWLIPTPWPGVYQFSPK(COCH2)A; thioether 2-18 (inferred)) [compound 283] | B (0.5 or more and less than 0.7) |
| 284 (QCRITLLTIYQWKYAWHK(COCH2)E; thioether 2-18 (inferred)) [compound 284] | C (0.1 or more and less than 0.5) |
| 285 (QCSWWYVQVWTYPFHVLK(COCH2)G; thioether 2-18 (inferred)) [compound 285] | C (0.1 or more and less than 0.5) |
| 286 (HCLWSLHSFYTFKAWAK(COCH2)I; thioether 2-17 (inferred)) [compound 286] | C (0.1 or more and less than 0.5) |
| 287 (YCPFEVYSWWVPKWHK(COCH2)I; thioether 2-16 (inferred)) [compound 287] | C (0.1 or more and less than 0.5) |
| 288 (LCHLVFQFNPDTGKLWPK(COCH2)Y; thioether 2-18 (inferred)) [compound 288] | C (0.1 or more and less than 0.5) |
| 289 (DCPWSVFSWYIPIYNK(COCH2)I; thioether 2-16 (inferred)) [compound 289] | C (0.1 or more and less than 0.5) |
| 290 (FCVYTFDANAQSLDDALNK(COCH2)Q; thioether 2-19 (inferred)) [compound 290] | A (0.7 or more) |
| 291 (ICVYTFDAHAHSLDDALTK(COCH2)I; thioether 2-19 (inferred)) [compound 291] | A (0.7 or more) |
| 292 (ICVYTFDAHAHSLDAALNKI; not fully specified (residue 19, bridges)) [compound 292] | A (0.7 or more) |
| 293 (ICVYTFDAHAHSLDAALTK(COCH2)V; thioether 2-19 (inferred)) [compound 293] | A (0.7 or more) |
| 294 (ICVYTFDAHAHSLDAALTK(COCH2)Q; thioether 2-19 (inferred)) [compound 294] | A (0.7 or more) |
| 295 (ICVYTFDAHAHSLDAALNKV; not fully specified (residue 19, bridges)) [compound 295] | A (0.7 or more) |
| 296 (ICVYTFDAHAHSLDAALNKQ; not fully specified (residue 19, bridges)) [compound 296] | A (0.7 or more) |
| 297 (ICVYTFDAHAHSLHDALNK(COCH2)I; thioether 2-19 (inferred)) [compound 297] | A (0.7 or more) |
| 298 (ICVYTFDAHAHSLHDALTK(COCH2)V; thioether 2-19 (inferred)) [compound 298] | A (0.7 or more) |

| Substance | Evaluation result of binding affinity to FGFR |
| --- | --- |
| 299 (ICVYTFDAHAHSLHDALTK(COCH2)Q; thioether 2-19 (inferred)) [compound 299] | A (0.7 or more) |
| 300 (ICVYTFDAHAHSLHDALNK(COCH2)V; thioether 2-19 (inferred)) [compound 300] | A (0.7 or more) |
| 301 (ICVYTFDAHAHSLHDALNK(COCH2)Q; thioether 2-19 (inferred)) [compound 301] | A (0.7 or more) |
| 302 (ICVYTFDAHAHSLDDALNK(COCH2)I; thioether 2-19 (inferred)) [compound 302] | A (0.7 or more) |
| 303 (ICVYTFDAHAHSLDDALTK(COCH2)V; thioether 2-19 (inferred)) [compound 303] | A (0.7 or more) |
| 304 (ICVYTFDAHAHSLDDALTK(COCH2)Q; thioether 2-19 (inferred)) [compound 304] | A (0.7 or more) |
| 305 (ICVYTFDAHAHSLDDALNK(COCH2)V; thioether 2-19 (inferred)) [compound 305] | A (0.7 or more) |
| 306 (ICVYTFDAHAHSLDDALNK(COCH2)Q; thioether 2-19 (inferred)) [compound 306] | A (0.7 or more) |
| 307 (FCVYTFDAHAHSLDAALTK(COCH2)I; thioether 2-19 (inferred)) [compound 307] | A (0.7 or more) |
| 308 (FCVYTFDAHAHSLHDALTK(COCH2)I; thioether 2-19 (inferred)) [compound 308] | A (0.7 or more) |
| 309 (FCVYTFDAHAHSLDDALTK(COCH2)I; thioether 2-19 (inferred)) [compound 309] | A (0.7 or more) |
| 310 (ICVYTFDAHAQSLDAALTK(COCH2)I; thioether 2-19 (inferred)) [compound 310] | A (0.7 or more) |
| 311 (ICVYTFDAHAQSLHDALTK(COCH2)I; thioether 2-19 (inferred)) [compound 311] | A (0.7 or more) |
| 312 (ICVYTFDAHAQSLDDALTK(COCH2)I; thioether 2-19 (inferred)) [compound 312] | A (0.7 or more) |
| 313 (FCVYTFDAHAHSLDAALNK(COCH2)I; thioether 2-19 (inferred)) [compound 313] | A (0.7 or more) |
| 314 (FCVYTFDAHAHSLHDALNK(COCH2)I; thioether 2-19 (inferred)) [compound 314] | A (0.7 or more) |
| 315 (FCVYTFDAHAHSLDDALNK(COCH2)I; thioether 2-19 (inferred)) [compound 315] | A (0.7 or more) |
| 316 (FCVYTFDAHAHSLDAALTK(COCH2)Q; thioether 2-19 (inferred)) [compound 316] | A (0.7 or more) |
| 317 (FCVYTFDAHAHSLHDALTK(COCH2)Q; thioether 2-19 (inferred)) [compound 317] | A (0.7 or more) |
| 318 (FCVYTFDAHAHSLDDALTK(COCH2)Q; thioether 2-19 (inferred)) [compound 318] | A (0.7 or more) |
| 319 (FCVYTFDAHAHSLDAALNK(COCH2)Q; thioether 2-19 (inferred)) [compound 319] | A (0.7 or more) |
| 320 (FCVYTFDAHAHSLHDALNK(COCH2)Q; thioether 2-19 (inferred)) [compound 320] | A (0.7 or more) |
| 321 (FCVYTFDAHAHSLDDALNK(COCH2)Q; thioether 2-19 (inferred)) [compound 321] | A (0.7 or more) |
| 322 (CVYTFDAHAHSLDAALTK(COCH2)I; thioether 1-18 (inferred)) [compound 322] | A (0.7 or more) |
| 323 (ICVYTFDANAHSLDAALTK(COCH2)I; thioether 2-19 (inferred)) [compound 323] | A (0.7 or more) |
| 324 (ICVYTFDANAHSLHDALTK(COCH2)I; thioether 2-19 (inferred)) [compound 324] | A (0.7 or more) |
